Four molecules from patent publication US20210317225A1 (Genmab, published 2021) can be followed below.

Test [1] has as its target Human CD137 (TNR9_Human) (human, UniProt Q07011 24-255). The experiment in a line: cell-based or functional assay.
Test [2] deals with Human CD40 (human, UniProt P25942 21-277). The experiment in a line: cell-based or functional assay.
Chain of Human CD40 (P25942 21-277): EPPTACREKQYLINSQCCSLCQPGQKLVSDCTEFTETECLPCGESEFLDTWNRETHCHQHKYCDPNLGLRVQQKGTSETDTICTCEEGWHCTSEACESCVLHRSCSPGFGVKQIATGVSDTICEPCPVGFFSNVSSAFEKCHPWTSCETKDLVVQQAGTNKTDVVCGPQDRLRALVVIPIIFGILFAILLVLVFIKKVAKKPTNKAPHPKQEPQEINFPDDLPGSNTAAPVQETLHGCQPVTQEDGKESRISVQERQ

Chain of Human CD137 (TNR9_Human) (Q07011 24-255): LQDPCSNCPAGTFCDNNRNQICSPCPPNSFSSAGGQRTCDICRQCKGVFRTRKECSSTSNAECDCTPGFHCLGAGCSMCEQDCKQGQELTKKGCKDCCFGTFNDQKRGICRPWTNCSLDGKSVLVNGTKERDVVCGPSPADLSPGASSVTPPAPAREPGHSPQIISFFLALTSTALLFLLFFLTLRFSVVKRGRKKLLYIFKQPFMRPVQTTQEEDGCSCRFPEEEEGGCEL

B1: CD40-001-FEALxCD137-001-FEAR (bispecific antibody, human IgG1, kappa)
heavy 1: EVQLQQSGPDLVKPGASVKISCKTSGYTFTEYIMHWVKQSHGKSLEWIGGIIPNNGGTSYNQKFKDKATMTVDKSSSTGYMELRSLTSEDSAVYYCTRREVYGRNYYALDYWGQGTLVTVSSASTKGPSVFPLAPSSKSTSGGTAALGCLVKDYFPEPVTVSWNSGALTSGVHTFPAVLQSSGLYSLSSVVTVPSSSLGTQTYICNVNHKPSNTKVDKRVEPKSCDKTHTCPPCPAPEFEGGPSVFLFPPKPKDTLMISRTPEVTCVVVAVSHEDPEVKFNWYVDGVEVHNAKTKPREEQYNSTYRVVSVLTVLHQDWLNGKEYKCKVSNKALPAPIEKTISKAKGQPREPQVYTLPPSREEMTKNQVSLTCLVKGFYPSDIAVEWESNGQPENNYKTTPPVLDSDGSFLLYSKLTVDKSRWQQGNVFSCSVMHEALHNHYTQKSLSLSPGK
light 1: DIQMTQTTSSLSASLGDRVTITCSASQGINNYLNWYQQKPDGTVKLLIYYTSSLHSGVPSRFSGSGSGTDYSLTISNLEPEDIATYYCQQYSNLPYTFGGGTKLEIKRTVAAPSVFIFPPSDEQLKSGTASVVCLLNNFYPREAKVQWKVDNALQSGNSQESVTEQDSKDSTYSLSSTLTLSKADYEKHKVYACEVTHQGLSSPVTKSFNRGEC
heavy 2: QSVEESGGRLVTPGTPLTLTCTVSGFSLSSYAVSWVRQAPGKGLEWIGVIWNNGATHYATWAKGRFTISKASTTVDLKVTSPTTEDTATYFCARSANDAWSTYSDLWGQGTLVTVSSASTKGPSVFPLAPSSKSTSGGTAALGCLVKDYFPEPVTVSWNSGALTSGVHTFPAVLQSSGLYSLSSVVTVPSSSLGTQTYICNVNHKPSNTKVDKRVEPKSCDKTHTCPPCPAPEFEGGPSVFLFPPKPKDTLMISRTPEVTCVVVAVSHEDPEVKFNWYVDGVEVHNAKTKPREEQYNSTYRVVSVLTVLHQDWLNGKEYKCKVSNKALPAPIEKTISKAKGQPREPQVYTLPPSREEMTKNQVSLTCLVKGFYPSDIAVEWESNGQPENNYKTTPPVLDSDGSFFLYSRLTVDKSRWQQGNVFSCSVMHEALHNHYTQKSLSLSPGK
light 2: DIVMTQTPASVEAAVGGTVTIKCQASQTITNYLSWYQQKPGQPPKLLIYKASTLTSGVSSRFKGSGSGTEFTLTISDLESDDAATYYCQNYYYGSSSGYGFVFGGGTEVVVKRTVAAPSVFIFPPSDEQLKSGTASVVCLLNNFYPREAKVQWKVDNALQSGNSQESVTEQDSKDSTYSLSSTLTLSKADYEKHKVYACEVTHQGLSSPVTKSFNRGEC
On to B1, for which the “luciferase activity (RLU) of NF-KB/293/GFP-Luc cells transduced with CD137, incubated with K562_CD40” value in test [1] was around 100 ng/mL. Further, the “luciferase activity (RLU) of NF-KB/293/GFP-Luc cells transduced with CD40, incubated with K562_CD137” value in test [2] was around 100 ng/mL.

B2: CD40-001-FEALxCD137-007-FEAR (bispecific antibody, human IgG1, kappa)
heavy 1: EVQLQQSGPDLVKPGASVKISCKTSGYTFTEYIMHWVKQSHGKSLEWIGGIIPNNGGTSYNQKFKDKATMTVDKSSSTGYMELRSLTSEDSAVYYCTRREVYGRNYYALDYWGQGTLVTVSSASTKGPSVFPLAPSSKSTSGGTAALGCLVKDYFPEPVTVSWNSGALTSGVHTFPAVLQSSGLYSLSSVVTVPSSSLGTQTYICNVNHKPSNTKVDKRVEPKSCDKTHTCPPCPAPEFEGGPSVFLFPPKPKDTLMISRTPEVTCVVVAVSHEDPEVKFNWYVDGVEVHNAKTKPREEQYNSTYRVVSVLTVLHQDWLNGKEYKCKVSNKALPAPIEKTISKAKGQPREPQVYTLPPSREEMTKNQVSLTCLVKGFYPSDIAVEWESNGQPENNYKTTPPVLDSDGSFLLYSKLTVDKSRWQQGNVFSCSVMHEALHNHYTQKSLSLSPGK
light 1: DIQMTQTTSSLSASLGDRVTITCSASQGINNYLNWYQQKPDGTVKLLIYYTSSLHSGVPSRFSGSGSGTDYSLTISNLEPEDIATYYCQQYSNLPYTFGGGTKLEIKRTVAAPSVFIFPPSDEQLKSGTASVVCLLNNFYPREAKVQWKVDNALQSGNSQESVTEQDSKDSTYSLSSTLTLSKADYEKHKVYACEVTHQGLSSPVTKSFNRGEC
heavy 2: QSLEESGGRLVTPGTPLTLTCTASGFSLSSYDVSWVRQAPGKGLEYIGFIGSDGSAHYATWVKGRFTISKTSTTVDLKITSPTTEDTATYFCARDWNDYWAHDLWGPGTLVTVSSASTKGPSVFPLAPSSKSTSGGTAALGCLVKDYFPEPVTVSWNSGALTSGVHTFPAVLQSSGLYSLSSVVTVPSSSLGTQTYICNVNHKPSNTKVDKRVEPKSCDKTHTCPPCPAPEFEGGPSVFLFPPKPKDTLMISRTPEVTCVVVAVSHEDPEVKFNWYVDGVEVHNAKTKPREEQYNSTYRVVSVLTVLHQDWLNGKEYKCKVSNKALPAPIEKTISKAKGQPREPQVYTLPPSREEMTKNQVSLTCLVKGFYPSDIAVEWESNGQPENNYKTTPPVLDSDGSFFLYSRLTVDKSRWQQGNVFSCSVMHEALHNHYTQKSLSLSPGK
light 2: AQVLTQTTSPVSAAVGGTVTINCQASQIVTSKSALSWYQQKPGQPPRLLIYKASTLASGVPSRFSGSGSGTQFTLTISDLESDDAATYYCAGGYYNSGDLNPFGGGTEVVVKRTVAAPSVFIFPPSDEQLKSGTASVVCLLNNFYPREAKVQWKVDNALQSGNSQESVTEQDSKDSTYSLSSTLTLSKADYEKHKVYACEVTHQGLSSPVTKSFNRGEC
Turning to B2, in test [1], the “luciferase activity (RLU) of NF-KB/293/GFP-Luc cells transduced with CD137, incubated with K562_CD40” value was around 100 ng/mL. Also, the “luciferase activity (RLU) of NF-KB/293/GFP-Luc cells transduced with CD40, incubated with K562_CD137” value in test [2] was around 100 ng/mL.

B3: CD40-001-FEALxCD137-005-FEAR (bispecific antibody, human IgG1, kappa)
heavy 1: EVQLQQSGPDLVKPGASVKISCKTSGYTFTEYIMHWVKQSHGKSLEWIGGIIPNNGGTSYNQKFKDKATMTVDKSSSTGYMELRSLTSEDSAVYYCTRREVYGRNYYALDYWGQGTLVTVSSASTKGPSVFPLAPSSKSTSGGTAALGCLVKDYFPEPVTVSWNSGALTSGVHTFPAVLQSSGLYSLSSVVTVPSSSLGTQTYICNVNHKPSNTKVDKRVEPKSCDKTHTCPPCPAPEFEGGPSVFLFPPKPKDTLMISRTPEVTCVVVAVSHEDPEVKFNWYVDGVEVHNAKTKPREEQYNSTYRVVSVLTVLHQDWLNGKEYKCKVSNKALPAPIEKTISKAKGQPREPQVYTLPPSREEMTKNQVSLTCLVKGFYPSDIAVEWESNGQPENNYKTTPPVLDSDGSFLLYSKLTVDKSRWQQGNVFSCSVMHEALHNHYTQKSLSLSPGK
light 1: DIQMTQTTSSLSASLGDRVTITCSASQGINNYLNWYQQKPDGTVKLLIYYTSSLHSGVPSRFSGSGSGTDYSLTISNLEPEDIATYYCQQYSNLPYTFGGGTKLEIKRTVAAPSVFIFPPSDEQLKSGTASVVCLLNNFYPREAKVQWKVDNALQSGNSQESVTEQDSKDSTYSLSSTLTLSKADYEKHKVYACEVTHQGLSSPVTKSFNRGEC
heavy 2: QSVEESGGRLVTPGTPLTLTCTASGFTISDFHVTWVRQAPGKGLEWIGTIITSASTTAYATWARGRFTISKSSTTVNLKIVSPTTEDTATYFCARSTYTDTSGYYFDFWGQGTLVTVSSASTKGPSVFPLAPSSKSTSGGTAALGCLVKDYFPEPVTVSWNSGALTSGVHTFPAVLQSSGLYSLSSVVTVPSSSLGTQTYICNVNHKPSNTKVDKRVEPKSCDKTHTCPPCPAPEFEGGPSVFLFPPKPKDTLMISRTPEVTCVVVAVSHEDPEVKFNWYVDGVEVHNAKTKPREEQYNSTYRVVSVLTVLHQDWLNGKEYKCKVSNKALPAPIEKTISKAKGQPREPQVYTLPPSREEMTKNQVSLTCLVKGFYPSDIAVEWESNGQPENNYKTTPPVLDSDGSFFLYSRLTVDKSRWQQGNVFSCSVMHEALHNHYTQKSLSLSPGK
light 2: AQVLTQTASPVSAAVGGTVIINCQSSQSIYNGNRLSWYQQKPGQPPKLLIYSASTLASGVSSRFKGSGSGTQFTLAISDVQSDDAATYYCLGSYDCDSADCFAFGGGTEVVVERTVAAPSVFIFPPSDEQLKSGTASVVCLLNNFYPREAKVQWKVDNALQSGNSQESVTEQDSKDSTYSLSSTLTLSKADYEKHKVYACEVTHQGLSSPVTKSFNRGEC
Take B3: in test [1], the “EC50 for induction of T-cell proliferation (antigen-specific CD8+ T-cell assay, proliferation index curves)” value was found to be 5 ng/mL and the “luciferase activity (RLU) of NF-KB/293/GFP-Luc cells transduced with CD137, incubated with K562_CD40” value is around 100 ng/mL. Further, in test [2], the “luciferase activity (RLU) of NF-KB/293/GFP-Luc cells transduced with CD40, incubated with K562_CD137” value is around 100 ng/mL.

B4: CD40-001-FEALxCD137-006-FEAR (bispecific antibody, human IgG1, kappa)
heavy 1: EVQLQQSGPDLVKPGASVKISCKTSGYTFTEYIMHWVKQSHGKSLEWIGGIIPNNGGTSYNQKFKDKATMTVDKSSSTGYMELRSLTSEDSAVYYCTRREVYGRNYYALDYWGQGTLVTVSSASTKGPSVFPLAPSSKSTSGGTAALGCLVKDYFPEPVTVSWNSGALTSGVHTFPAVLQSSGLYSLSSVVTVPSSSLGTQTYICNVNHKPSNTKVDKRVEPKSCDKTHTCPPCPAPEFEGGPSVFLFPPKPKDTLMISRTPEVTCVVVAVSHEDPEVKFNWYVDGVEVHNAKTKPREEQYNSTYRVVSVLTVLHQDWLNGKEYKCKVSNKALPAPIEKTISKAKGQPREPQVYTLPPSREEMTKNQVSLTCLVKGFYPSDIAVEWESNGQPENNYKTTPPVLDSDGSFLLYSKLTVDKSRWQQGNVFSCSVMHEALHNHYTQKSLSLSPGK
light 1: DIQMTQTTSSLSASLGDRVTITCSASQGINNYLNWYQQKPDGTVKLLIYYTSSLHSGVPSRFSGSGSGTDYSLTISNLEPEDIATYYCQQYSNLPYTFGGGTKLEIKRTVAAPSVFIFPPSDEQLKSGTASVVCLLNNFYPREAKVQWKVDNALQSGNSQESVTEQDSKDSTYSLSSTLTLSKADYEKHKVYACEVTHQGLSSPVTKSFNRGEC
heavy 2: QSVEESGGRLVTPGTPLTLTCTVSGFSLSSYAMSWVRQAPGKGLEWIGIISTSGITYYASWAKGRFTISKTSTMVDLKITSPTTEDTATYFCARLNGFDDYVRYFDFWGLGTLVTVSSASTKGPSVFPLAPSSKSTSGGTAALGCLVKDYFPEPVTVSWNSGALTSGVHTFPAVLQSSGLYSLSSVVTVPSSSLGTQTYICNVNHKPSNTKVDKRVEPKSCDKTHTCPPCPAPEFEGGPSVFLFPPKPKDTLMISRTPEVTCVVVAVSHEDPEVKFNWYVDGVEVHNAKTKPREEQYNSTYRVVSVLTVLHQDWLNGKEYKCKVSNKALPAPIEKTISKAKGQPREPQVYTLPPSREEMTKNQVSLTCLVKGFYPSDIAVEWESNGQPENNYKTTPPVLDSDGSFFLYSRLTVDKSRWQQGNVFSCSVMHEALHNHYTQKSLSLSPGK
light 2: AIELTQTPSSVSAAVGGTVTINCQASESIASNLAWYQQKPGQPPKLLIYAASYLASGVPSRFKGSGSGTEYTLTISGVQSADAATYYCQSAFYVSSSDNAFGGGTEVVVKRTVAAPSVFIFPPSDEQLKSGTASVVCLLNNFYPREAKVQWKVDNALQSGNSQESVTEQDSKDSTYSLSSTLTLSKADYEKHKVYACEVTHQGLSSPVTKSFNRGEC
Consider B4, for which the “luciferase activity (RLU) of NF-KB/293/GFP-Luc cells transduced with CD137, incubated with K562_CD40” value in test [1] was around 100 ng/mL. Also, the “luciferase activity (RLU) of NF-KB/293/GFP-Luc cells transduced with CD40, incubated with K562_CD137” value in test [2] is around 100 ng/mL.
